Source: US7691579B2, “Methods and compositions for producing an enhanced immune response to a human papillomavirus immunogen” (priority 2005, dated 2010)
Where “and” joins values, the source holds several entries; their conditions need not be identical. Equal entries are not always repeated.

Assays:
HPV16 pseudovirus = experiment: Quantitative HPV16 pseudovirus neutralization assay with sera of vaccinated rabbits; assay type: in vivo; settings: individual vaccinated rabbits
Description: Development of Antibody Response to L1-VLP: To analyze the effect of the GM-CSF/anti-CD40 antibody combination on antibody response, an ELISA assay was employed to measure the titre of anti-L1-VLP antibodies in mice immunized with the chimeric L1-VLP-L2-E2-E7 construct, with or without the GM-CSF/anti-CD40 antibody combination. Both groups of mice produced high titers of anti-L1 VLP antibodies (FIG. 9). There is no detectable anti-L1 VLP antibody in the serum of mice immunized with E7 peptide in combination with GM-CSF and anti-CD40 in IFA, as expected. […] To confirm the prophylactic potential of the chimeric L1-VLP-L2-E7-E2 construct, the anti body titers raised against the chimeric L1-VLP-E7 E2 construct and the L1-VLPs were compared using a recently developed quantitative HPV16 pseudovirus neutralization assay. […]
To test whether the combination of VLP-E7E2 with immune-modulators affects the antibody response, the titer of anti-L1-VLP antibodies was evaluated by ELISA. […] To confirm the prophylactic potential of the chimeric VLPs, we compared the antibody titers raised against the chimeric VLP-E7E2 and wild type VLPs, using a recently developed quantitative HPV16 pseudovirus neutralization assay. […]

CD11c+ dendritic cells = experiment: FACScan analysis of dendritic cells in draining lymph nodes of immunized mice; assay type: in vivo, HLA-A2 transgenic mice (AAD); settings: in VLP-E7E2 immunized mice, aqueous solution
Description: Draining lymph nodes were collected six days after immunization for FACScan analysis. Mice are immunized with 10 μg of chimeric VLP-E7 with or without GM-CSF or an anti-CD40L antibody. Draining inguinal lymph nodes are collected one week after immunization for FACScan analysis. The immunization protocols employed are as follows: Panel A—VLP-E7; Panel B—VLP-E7F+GM-CSF; Panel C—VLP-E7+anti-CD40 antibody; Panel D—VLP-E7+GM-CSF+anti-CD40 antibody. For Data 003, 010, 017, and 024, the percentage of gated is the sum of the number from the upper left and upper right quadrants. For the rest of the data, the percentage of gated is the number from the upper right quadrant indicating the CD80, CD 86 and CD40 positive cells.
Flow cytometric analysis and Abs: Lymph node cells (1×10^6) are taken from mice one week after immunization. […] Data files are analyzed using CellQuest software (BD Biosciences, Mountain View, Calif.).
DCS Play An Important Role In VLP-E7E2/GM-CSF/Anti-CD40 Induced CTL Response In Vivo: It is known that GM-CSF and anti-CD40 play important roles in DC activation (Gurunathan, S. et al. 1998 J. Immunol. 161:4563-4571; Ahlers, J. D. et al. 1997 PNAS USA 94:10856-10861). […] In the Examples reported herein, the phenotypic changes of DC in the draining lymph nodes (DLN) of vaccinated mice were analyzed. […]

[1] = tested on: EL-4 target cells pulsed with E7 49-57 peptides; experiment: CTL assay (51Cr release) with spleen cells of immunized C57BL/6 mice; assay type: in vivo; settings: given in aqueous solution with VLP-E7E2
Description: (§1) Immunization: Mice were immunized subcutaneously at the base of the tail with the chimeric VLPs. GM-CSF (Preprotech, Rocky Hill, N.J.) was given the day before and the same day as the VLP injection. Anti-CD40 (SouthernBiotech, Birmingham Ala.) was given with the VLP. Mice were also immunized with 50 nmoles of peptide in incomplete Freund's adjuvant (IFA) with or without GM-CSF (5 μg/mouse) and anti-CD40 (10 μg/mouse). All vaccines were prepared immediately prior to injection. Each group had 4 mice, and the pooled spleen cells from four mice were used for assays. 10 μg of VLP-E7E2 was given to a mouse. The MW of the VLP-E7E2 is about 5280 Kd (72×L1@55 Kd=3960 Kd, and 12×L2E7E2@110 kd=1320 Kd). The number of moles of VLP-E7E2 in 10 μg of total protein is about […].
(§2) CTL assay: Two (or three) weeks after immunization, spleens were aseptically removed and single cell suspensions are prepared. […] Cytolytic activity of cells is measured by a 4-h assay with ^51Cr-labeled EL-4 or C1R.AAD target cells in triplicate wells. Percent ^51Cr release is calculated as 100×(experimental release-spontaneous release)/(maximum release-spontaneous release). Maximum release is determined from supernatants of cells that are lysed by addition of […]. Spontaneous release is determined from target cells culture in medium. Data are expressed as an average from triplicate wells. […]

[2] = tested on: C1R.AAD target cells pulsed with E7 11-20 and E7 86-93 peptides; experiment: CTL assay (51Cr release) with spleen cells of immunized AAD mice, response to E7; assay type: in vivo, HLA-A2 transgenic mice (AAD); settings: co-injected in aqueous solution
Description: as §1, §2

L1-VLP: VLP of the full length L1 capsid protein of HPV16, control
neutralizing titers (HPV16 pseudovirus; listed as L1-VLP construct): 40,960 and 163,840
neutralizing titers (HPV16 pseudovirus; listed as wild type VLPs): 163,840

B1: GM-CSF: murine granulocyte/macrophage colony stimulating factor (Preprotech) (protein, UniProt P01587 18-141, looked up)
Granulocyte-macrophage …: APTRSPITVTRPWKHVEAIKEALNLLDDMPVTLNEEVEVVSNEFSFKKLTCVQTRLKIFEQGLRGNFTKLKGALNMTASYYQTYCPPTPETDCETQVTTYADFIDSLKTFLTDIPFECKKPGQK
recruitment or activation of the DCs (CD11c+ dendritic cells): no effect
effect on the VLP-E7E2 induced CTL response [1]: no effect
effect of co-injection on the VLP-E7E2-induced CTL response to E7 [2]: no effect
